In paper PMC9651861 (Science Advances, 2022):

Target: T1, human serum albumin (Homo sapiens, UniProt P02768)
T1 construct: also called HSA
Experiment: BLI
Settings: both partners purified

| Binder | binding result |
| --- | --- |
| DesAb-RBD-C2 (VHH) VHH: EVQLEESGGGLVQPGGSLRLSCAASGFNIKDTYIGWVRQAPGKGEEWVASIYPTSGYTRYADSVKGRFTISADTSKNTAYLQMNSLRAEDTAVYYCAAGSVVADLSVEEFDYWGQGTLVTVSS | no binding |
| DesAb-RBD-C1 (VHH) VHH: EVQLEESGGGLVQPGGSLRLSCAASGFNIKDTYIGWVRQAPGKGEEWVASIYPTSGYTRYADSVKGRFTISADTSKNTAYLQMNSLRAEDTAVYYCAAGSGSSATEVYEEFDYWGQGTLVTVSS | no binding |
